From the supplement of paper PMC6757056
± gives the standard deviation of the averaged measurements.

B1: library; a variant is named by its letters at N, in order (parent)
chain: GCUGUCACCGGUGUAUUACCCUAGUGGUCGACCGGUCUGAUGAGUCUNNNNNNAGACGAAACAGC

How the values were obtained:
[1] = variants of: B1; assay: normalized RNA/DNA level with ligand (relative to sTRSVctl = 100) (log10 (% of sTRSVctl)); ligand: hypoxanthine (xanthine aptamer); higher = less ribozyme self-cleavage, higher mRNA level; conditions: ligand concentration (+) RNA-Seq: 5 mM, HEK293T, reporter: mCherry (pCS4076), ligand present: yes
Summary of the method: (§1)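 HEK293T cells received ligand, where used, 1 h before being transfected with 4 µg per 6-well well of library plasmids encoding reporter-linked ribozyme switches. After 72 h, RNA was extracted with EDTA and sequenced. RNA level was derived from RNA reads per DNA read, normalized to a spiked-in non-cleaving sequence or the top sequences, then scaled and log-transformed. Values were ×100 then log10, the top set was 25 sequences, and the minimum was 100 DNA reads.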

[2] = variants of: B1; assay: normalized RNA/DNA level without ligand (relative to sTRSVctl = 100) (log10 (% of sTRSVctl)); ligand: hypoxanthine (xanthine aptamer); higher = less ribozyme self-cleavage, higher mRNA level; conditions: HEK293T, reporter: mCherry (pCS4076), ligand present: no
Summary of the method: as §1

Variant | normalized RNA/DNA level with ligand (log10) [1] | normalized RNA/DNA level without ligand (log10) [2]
GCUGUCACCGGUGUAUUACCCUAGUGGUCGACCGGUCUGAUGAGUCUGCCCCGAGACGAAACAGC [GCCCCG] | 1.92 ± 0.05 | 1.52 ± 0.021
GCUGUCACCGGUGUAUUACCCUAGUGGUCGACCGGUCUGAUGAGUCUGCCCCUAGACGAAACAGC [GCCCCU] | 1.93 ± 0.029 | 1.933 ± 0.0028
GCUGUCACCGGUGUAUUACCCUAGUGGUCGACCGGUCUGAUGAGUCUGCCCCCAGACGAAACAGC [GCCCCC] | 1.95 ± 0.033 | 1.83 ± 0.078
GCUGUCACCGGUGUAUUACCCUAGUGGUCGACCGGUCUGAUGAGUCUUCCCGCAGACGAAACAGC [UCCCGC] | 1.924 ± 0.018 | 1.51 ± 0.017
GCUGUCACCGGUGUAUUACCCUAGUGGUCGACCGGUCUGAUGAGUCUUCCCGGAGACGAAACAGC [UCCCGG] | 1.95 ± 0.11 | 1.668 ± 0.0066
GCUGUCACCGGUGUAUUACCCUAGUGGUCGACCGGUCUGAUGAGUCUUCCCGAAGACGAAACAGC [UCCCGA] | 1.956 ± 0.0054 | 1.8 ± 0.031
GCUGUCACCGGUGUAUUACCCUAGUGGUCGACCGGUCUGAUGAGUCUACCCUUAGACGAAACAGC [ACCCUU] | 1.974 ± 0.013 | 1.92 ± 0.06
GCUGUCACCGGUGUAUUACCCUAGUGGUCGACCGGUCUGAUGAGUCUACCCUCAGACGAAACAGC [ACCCUC] | 1.936 ± 0.0052 | 1.895 ± 0.00022
GCUGUCACCGGUGUAUUACCCUAGUGGUCGACCGGUCUGAUGAGUCUACCCUAAGACGAAACAGC [ACCCUA] | 1.937 ± 0.014 | 1.85 ± 0.047
GCUGUCACCGGUGUAUUACCCUAGUGGUCGACCGGUCUGAUGAGUCUGCCCUAAGACGAAACAGC [GCCCUA] | 1.97 ± 0.052 | 1.8733 ± 0.00068
GCUGUCACCGGUGUAUUACCCUAGUGGUCGACCGGUCUGAUGAGUCUGCCCUCAGACGAAACAGC [GCCCUC] | 1.97 ± 0.035 | 1.88 ± 0.058
GCUGUCACCGGUGUAUUACCCUAGUGGUCGACCGGUCUGAUGAGUCUCCCCCGAGACGAAACAGC [CCCCCG] | 1.92 ± 0.064 | 1.93 ± 0.044
GCUGUCACCGGUGUAUUACCCUAGUGGUCGACCGGUCUGAUGAGUCUCCCCCUAGACGAAACAGC [CCCCCU] | 2.01 ± 0.038 | 1.976 ± 0.014
GCUGUCACCGGUGUAUUACCCUAGUGGUCGACCGGUCUGAUGAGUCUCCCCGUAGACGAAACAGC [CCCCGU] | 1.94 ± 0.022 | 1.92 ± 0.055
GCUGUCACCGGUGUAUUACCCUAGUGGUCGACCGGUCUGAUGAGUCUCCCCGCAGACGAAACAGC [CCCCGC] | 1.986 ± 0.019 | 1.9 ± 0.047
GCUGUCACCGGUGUAUUACCCUAGUGGUCGACCGGUCUGAUGAGUCUCCCCGAAGACGAAACAGC [CCCCGA] | 1.95 ± 0.059 | 1.81 ± 0.025
GCUGUCACCGGUGUAUUACCCUAGUGGUCGACCGGUCUGAUGAGUCUCCCCGGAGACGAAACAGC [CCCCGG] | 1.985 ± 0.0052 | 1.97 ± 0.035
GCUGUCACCGGUGUAUUACCCUAGUGGUCGACCGGUCUGAUGAGUCUCCCCUGAGACGAAACAGC [CCCCUG] | 1.927 ± 0.0039 | 1.81 ± 0.04
GCUGUCACCGGUGUAUUACCCUAGUGGUCGACCGGUCUGAUGAGUCUCCCCUAAGACGAAACAGC [CCCCUA] | 1.98 ± 0.061 | 1.855 ± 0.0056
GCUGUCACCGGUGUAUUACCCUAGUGGUCGACCGGUCUGAUGAGUCUCCCCUUAGACGAAACAGC [CCCCUU] | 2 ± 0.045 | 1.913 ± 0.014
GCUGUCACCGGUGUAUUACCCUAGUGGUCGACCGGUCUGAUGAGUCUUCCCUCAGACGAAACAGC [UCCCUC] | 1.98 ± 0.03 | 1.66 ± 0.14
